These results are taken from the supplement of paper PMC10201428.

± gives the standard deviation of the averaged measurements.

Series [1] relates to VchCAST RNA-guided transposition machinery (E. coli BL21(DE3) host, lacZ target). Description: relative integration efficiency (T-RL orientation) vs wild-type transposon end (log2 (normalized fold change)); transposon end mutated: right end (5 bp flank + 75 bp right end); higher = more efficient transposition. In short, it runs like this:
(§1)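 A T7-driven effector plasmid encoding a CRISPR array, tniQ-cas8-cas7-cas6 and tnsA-tnsB-tnsC was co-transformed into E. coli BL21(DE3) together with a pUC57 mini-transposon donor holding barcoded pools of 1549 left-end or 1849 right-end variants. Transformants were plated with 0.1 mM IPTG at 37°C for 18 h. Illumina sequencing of PCR-amplified input plasmids and genomic integration junctions gave barcode abundances, and relative integration efficiency is their output/input fold change, normalised to reference barcodes and log-transformed.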

Series [2] has the same test system. The series is described as follows: relative integration efficiency (T-LR orientation) vs wild-type transposon end (log2 (normalized fold change)); transposon end mutated: right end (5 bp flank + 75 bp right end); higher = more efficient transposition. In short, it runs like this:
as §1

For “ACATTTGTTGATACAACCATTAAATGATAATTCCACCCTTAAATTGATAATTATCACACCCAATTTAACTATAACGCTCTGATCATAGTCAGACCAACATTGCTACGACCCGTATTCGCACCGACAC”, the “relative integration efficiency (log2)” value was -2.08 ± 0.36 in series [1] and 0.973 ± 0.22 in series [2].

Consider “ACATTTGTTGATACAACCATTAAATGCTAATTCCACCCATAAATTGATAATTATCACACCCAATTTAACTATAACGCTCTGATCATAGTCAGACCAACATTGCTACGACCCGTATTCGCACCGACAC”, for which the “relative integration efficiency (log2)” value in series [1] was -0.972 ± 0.32; in series [2], 2.09 ± 0.22.

Take “ACATTTGTTGATACAACCATTAAATGGTAATTACACCCATAAATTGATAATTATCACACCCAATTTAACTATAACGCTCTGATCATAGTCAGACCAACATTGCTACGACCCGTATTCGCACCGACAC”: the “relative integration efficiency (log2)” value in series [1] was -1.34 ± 0.19; in series [2], 1.674 ± 0.011.

For the sequence “ACATTTGTTGATACAACCATTAAATGGTAATTCCACCCAAAAATTGATAATTATCACACCCAATTTAACTATAACGCTCTGATCATAGTCAGACCAACATTGCTACGACCCGTATTCGCACCGACAC”, the “relative integration efficiency (log2)” value is -2.14 ± 0.21 in series [1] and 0.883 ± 0.18 in series [2].

Consider “ACATTTGTTGATACAACCATTAAATGGTAATTCCACCCAAATATTGATAATTATCACACCCAATTTAACTATAACGCTCTGATCATAGTCAGACCAACATTGCTACGACCCGTATTCGCACCGACAC”, for which the “relative integration efficiency (log2)” value in series [1] was -2.19 ± 0.42; in series [2], 0.805 ± 0.3.

As to “ACATTTGTTGATACAACCATTAAATGGTAATTCCACCCATAAATTGATAATTATCACACCCAATTTAACTATAACGCTCTGATCATAGTCAGACCAACATTGCTACGACCCGTATTCGCACCGACAC”, the “relative integration efficiency (log2)” value in series [1] is -1.26 ± 0.19; in series [2], 2.07 ± 0.25.

Consider “ACATTTGTTGATACAACCATTAAATGGTAATTCCACCCATATATTGATAATTATCACACCCAATTTAACTATAACGCTCTGATCATAGTCAGACCAACATTGCTACGACCCGTATTCGCACCGACAC”, for which the figures for the “relative integration efficiency (log2)” value in series [1] and in series [2] were -1.52 ± 0.24 and 1.37 ± 0.13, respectively.

With “ACATTTGTTGATACAACCATTAAATGTTAATTCCACCCATAAATTGATAATTATCACACCCAATTTAACTATAACGCTCTGATCATAGTCAGACCAACATTGCTACGACCCGTATTCGCACCGACAC”, the “relative integration efficiency (log2)” value in series [1] was -1.56 ± 0.23; in series [2] it was 1.73 ± 0.32.

With “ACATTTGTTGATACAACCATTTAATGATAATAACACCCATAAAATGATAATTATCACACCCAATTTAACTATAACGCTCTGATCATAGTCAGACCAACATTGCTACGACCCGTATTCGCACCGACAC”, the “relative integration efficiency (log2)” value is -1.14 ± 0.26 in series [1] and 2.01 ± 0.13 in series [2].

For “ACATTTGTTGATACAACCATTTAATGATAATTACACCCATAAATTGATAATTATCACACCCATAAATTGATATTGCCTCTGATCATAGTCAGACCAACATTGCTACGACCCGTATTCGCACCGACAC”, the results for the “relative integration efficiency (log2)” value in series [1] and in series [2] were -0.195 ± 0.052 and -0.232 ± 0.26, respectively.

In the case of “ACATTTGTTGATACAACCATTTTTTGATAATTACACCCATAAATTGATAATTATCACACCCATAAATTGATATTGCCTCTGATCATAGTCAGACCAACATTGCTACGACCCGTATTCGCACCGACAC”, the “relative integration efficiency (log2)” value is -0.627 ± 0.016 in series [1] and -0.748 ± 0.44 in series [2].

Consider “ACATTTGTTGATACAACCATTTTTTGATAATTACACCCATTTTATGATAATTATCACACCCATTTTATGATATTGCCTCTGATCATAGTCAGACCAACATTGCTACGACCCGTATTCGCACCGACAC”, for which the “relative integration efficiency (log2)” value in series [1] was -1.61 ± 0.23; in series [2], -1.01 ± 0.052.

As for “ACATTTGTTGATACAACCCGAAAATGATAATTACACCCATAAATTGATAATTATCACACCCATAAATTGATATTGCCTCTGATCATAGTCAGACCAACATTGCTACGACCCGTATTCGCACCGACAC”, the results for the “relative integration efficiency (log2)” value in series [1] and in series [2] were -3.8 ± 0.095 and -3.67 ± 0.84, respectively.

For “ACATTTGTTGATACAACCCGCCAATGATAATTACACCCATAAATTGATAATTATCACACCCATAAATTGATATTGCCTCTGATCATAGTCAGACCAACATTGCTACGACCCGTATTCGCACCGACAC”, the “relative integration efficiency (log2)” value is -4.28 ± 0.2 in series [1] and -3.85 ± 0.3 in series [2].

Take “ACATTTGTTGATACAACCCTAAAATGATAATTACACCCATAAATGGATAATTATCACACCCAATTTAACTATAACGCTCTGATCATAGTCAGACCAACATTGCTACGACCCGTATTCGCACCGACAC”: the “relative integration efficiency (log2)” value in series [1] was -3.06 ± 0.29; in series [2], -0.403 ± 0.044.

“ACATTTGTTGATACAACCCTAAAATGATAATTACACCCATAAATGGATAATTATCACCCCCAATTTAACTATAACGCTCTGATCATAGTCAGACCAACATTGCTACGACCCGTATTCGCACCGACAC”: the entries for the “relative integration efficiency (log2)” value in series [1] and in series [2] were -3.24 ± 0.23 and -0.791 ± 0.11, respectively.

For the sequence “ACATTTGTTGATACAACCCTAAAATGATAATTACACCCATAAATGGATCATTATCACACCCAATTTAACTATAACGCTCTGATCATAGTCAGACCAACATTGCTACGACCCGTATTCGCACCGACAC”, the “relative integration efficiency (log2)” value in series [1] is -3.87 ± 0.32; in series [2], -1.52 ± 0.39.

On to “ACATTTGTTGATACAACCCTAAAATGATAATTACACCCATAAATGGATCATTATCACCCCCAATTTAACTATAACGCTCTGATCATAGTCAGACCAACATTGCTACGACCCGTATTCGCACCGACAC”, for which the entries for the “relative integration efficiency (log2)” value in series [1] and in series [2] were -4.22 ± 0.58 and -1.44 ± 0.036, respectively.

As to “ACATTTGTTGATACAACCCTAAAATGATAATTACACCCATAAATTCATAATTATCACACCCAATTTAACTATAACGCTCTGATCATAGTCAGACCAACATTGCTACGACCCGTATTCGCACCGACAC”, the “relative integration efficiency (log2)” value in series [1] was -4.59 ± 0.4; in series [2], -1.75 ± 0.15.

For “ACATTTGTTGATACAACCCTAAAATGATAATTACACCCATAAATTCATAATTATCACCCCCAATTTAACTATAACGCTCTGATCATAGTCAGACCAACATTGCTACGACCCGTATTCGCACCGACAC”, the “relative integration efficiency (log2)” value in series [1] is -4.15 ± 0.4; in series [2], -1.67 ± 0.083.

Turning to “ACATTTGTTGATACAACCCTAAAATGATAATTACACCCATAAATTCATCATTATCACACCCAATTTAACTATAACGCTCTGATCATAGTCAGACCAACATTGCTACGACCCGTATTCGCACCGACAC”, the “relative integration efficiency (log2)” value is -4.59 ± 0.18 in series [1] and -1.57 ± 0.23 in series [2].

With “ACATTTGTTGATACAACCCTAAAATGATAATTACACCCATAAATTCATCATTATCACCCCCAATTTAACTATAACGCTCTGATCATAGTCAGACCAACATTGCTACGACCCGTATTCGCACCGACAC”, the “relative integration efficiency (log2)” value in series [1] is -4.72 ± 0.23; in series [2] it was -1.49 ± 0.085.

For the sequence “ACATTTGTTGATACAACCCTAAAATGATAATTACACCCATAAATTGATAATTATCACCCCCAATTTAACTATAACGCTCTGATCATAGTCAGACCAACATTGCTACGACCCGTATTCGCACCGACAC”, the “relative integration efficiency (log2)” value was -1.61 ± 0.24 in series [1] and 1.5 ± 0.089 in series [2].

Take “ACATTTGTTGATACAACCCTAAAATGATAATTACACCCATAAATTGATCATTATCACACCCAATTTAACTATAACGCTCTGATCATAGTCAGACCAACATTGCTACGACCCGTATTCGCACCGACAC”: the results for the “relative integration efficiency (log2)” value in series [1] and in series [2] were -3 ± 0.31 and 0.357 ± 0.061, respectively.

In the case of “ACATTTGTTGATACAACCCTAAAATGATAATTACACCCATAAATTGATCATTATCACCCCCAATTTAACTATAACGCTCTGATCATAGTCAGACCAACATTGCTACGACCCGTATTCGCACCGACAC”, the figures for the “relative integration efficiency (log2)” value in series [1] and in series [2] were -2.81 ± 0.49 and 0.404 ± 0.19, respectively.
